test system: MS2 coat protein; experiment: apparent KD of MS2 coat protein; higher = weaker reporter binding; details: Eterna round: R107; input ligand: theophylline 2 mM
Procedure, shortened: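 The buffer was 100 mM Tris-HCl pH 7.5 with 80 mM KCl and 4 mM MgCl2, used without or with constant ligand. In it, RNA switches transcribed on-chip from Illumina sequencing clusters were titrated with SNAP-549-labelled MS2 coat protein in twofold steps from 0.7 or 1.5 nM to 3 µM. Apparent KD for each design is the median of its normalised cluster binding-curve fits.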

In order of rising “apparent KD of MS2 coat protein” value:
1. GGGCAAGAGGGAAGGAGCGUCAGCUGAGUAACAUGAGGAUCACCCAUGUAGCACAUAGUGUGACAGGUAGGUCGCCCUCUGCCCU [SS-ArgB6]  8.42 nM
2. ACAUGAGGAUCACCCAUGUGUGUAAGUCCUCGAGGACCGGUACGGCCGCCACUCGAACGAGUGAAGCCUGAUACUAAGUAUCAGG [SS Trp A s5]  14.4 nM
3. UGUAUGUGAUCUGAUACCAGAGUGACGCGAAAGCGACCUGAGGAUCACCCUGGUAAAUAACUCCCUUGGCAGCAGAUCGCAUACU  17.8 nM
4. AAUUAUUUCUCAAUUAUUUAAUCUUCAGAAGGAGCGUGAUGAUUCACAGGUAGGUCGCUGAUGACAUGAGGAUCACCCAUGUAUU [JR_SSArginiA_Sub003]  29.1 nM
5. GCUACAUGAGGAUCACCCAUGUAUGCGAGUCGAGGACCGGUACGGCCGCCACUCGCUUAACAUGAGGAUCACCCAUGUUACUCGC [SSTA DOUBLE!!! :-D #19]  88.7 nM
6. UAUCGUCAGACGGCCGCCACUAGAACAUGAGGAUCACCCAUGUACGGCCGCCCGGUGUGAUCCACUAGGACCGGGUCUGACGAAU [(Trp1)-(Ms2)-(T)'-(M)'-(Trp2)_Design23]  95.7 nM
7. GUAUGAGUUGACUGUGAGACUGGCGUGGAAGGAGCGCACGGAGGUGCAGGUAGGUCGCCACAUGAGGAUCACCCAUGUCAGGCCG [Ceedtila]  111 nM
8. AUUGACAUGAGGAUCACCCAUGUAUCCGAAGGAGCGGCAGAUGUGCCAGGUAGGUCGCGGGUGAAAGAGACAUCGUAGGGUGUCG [Same State - Arginine A / B [only NuPack]]  469 nM

same assay, conditions: Eterna round: R107; input ligand: tryptophan 2.4 mM

In order of rising “apparent KD of MS2 coat protein” value:
1. GCUUGGGUCGCACGGCCCUGGCGGUGCGAUACCAGCACGGUAACGUGCCCUUGGCAGCGCACAUGAGGAUCACCCAUGUGGUGCG [#1 Exclusion - Theophylline A Attempt #23 (HarryS)]  12.4 nM
2. GGGCAAGAGGGAAGGAGCGUCAGCUGAGUAACAUGAGGAUCACCCAUGUAGCACAUAGUGUGACAGGUAGGUCGCCCUCUGCCCU [SS-ArgB6]  12.5 nM
3. UUUACCGACACAGAUCACUAAAACCUUGAUACCAGUCCCAGUGGCGACCCUUGGCAGCAAUAUACAUGAGGAUCACCCAUGUGCA [theeternabot_exclusion_MS2_Theo_A_1]  13.8 nM
4. ACAUGAGGAUCACCCAUGUAAUAAUCAGAAGGAGCGUGGAAUAACACAGGUAGGUCGCUGAUGUUUUGUUAAAAUUAUUCGUGAA [JR_SSArginiA_Sub002]  14.3 nM
5. CGAAUACGAAUUGAUACCAGCAUGUUAACAUGAGGAUCACCCAUGUUAAGGAUAACAUAAUGCCCUUGGCAGCAACGUAAAUUCG [Ab]  14.4 nM
6. AGCAAGUUCGGAAGGAGCGGUACAUGAGGAUCACCCAUGUAUUCAAUCGUGAUCGGAACGUGCCAGGUAGGUCGCCGAAUGCGUC [XArg-B1]  15 nM
7. ACAUGAGGAUCACCCAUGUGUGUAAGUCCUCGAGGACCGGUACGGCCGCCACUCGAACGAGUGAAGCCUGAUACUAAGUAUCAGG [SS Trp A s5]  18.7 nM
8. UCUUGAGUUUCGGAUACCAGUGUUGUCGAUACAUGAGGAUCACCCAUGUUAGAGGAUGUACACCCUUGGCAGCCGGCUGUGGCGG [zszmullin]  19 nM
9. GCCAUCGGCGAAAGCCGAUGGUAUACAGAAGGAGCGCACGAAAGUGCAGGUAGGUCGCUGAACAUGAGGAUCACCCAUGUAAUAA [#29 Same State - Arginine A]  19.4 nM
10. GAUGAACUAUAUGAUACCAGACAACAUGAGGAUCACCCAUGUGAUAGUCGUCCUCUGCCUGUCCCUUGGCAGCGUAUAGUUUAUC [XTheo B #19]  21.2 nM
11. CGAGUCCGCUGAUGGGCUAAGUCAGGUGAUACCAGCCACUCCCGCGGCCCUUGGCAGCACAUGAGGAUCACCCAUGUAGGGCUUG [Iserbele]  23.1 nM
12. AAUUAUUUCUCAAUUAUUUAAUCUUCAGAAGGAGCGUGAUGAUUCACAGGUAGGUCGCUGAUGACAUGAGGAUCACCCAUGUAUU [JR_SSArginiA_Sub003]  27.5 nM
13. AGACAUGAGGAUCACCCAUGUAGUAUGGAUACCAGAUCCAGAUUUAUCCCUUGGCAGCUGUGGUACAGCGUUGGAUCGCUCCUAG [Exclusion - Theophylline A (Freestyle 12)]  27.8 nM
14. CACAUGAGGAUCACCCAUGUCUGAACUGAAGGAGCGCUAAAUAAGGCAGGUAGGUCGCGGAAUUUUGUGUGCAUAUGCAUAUGGG [9.M]  28.8 nM
15. AUACAUGAGGAUCACCCAUGUAUAGAUGAAGGAGCGACCAGAGGGUCAGGUAGGUCGCAUCACAUGAGGAUCACCCAUGUAUUUU [DOUBLE!!! :-D #10]  43.7 nM
16. UAAAACAUGAGGAUCACCCAUGUAAUUGAUACCAGAGUGAUGAUCCUCCCUUGGCAGCAAAACGCUGAUUGGAAACAAUCAGCGA [Mat - Same State Theophlline A - Mod of Eli - D25]  46.8 nM
17. UGUAUGUGAUCUGAUACCAGAGUGACGCGAAAGCGACCUGAGGAUCACCCUGGUAAAUAACUCCCUUGGCAGCAGAUCGCAUACU  48.3 nM
18. UGUUUUGUGGGAAGGAGCGCAUACUUCACAUGAGGAUCACCCAUGUCAAGACGUGAGUCAGUGCAGGUAGGUCGCCUAGUUAAGA [Same State - Arginine B (Freestyle 16)]  49.3 nM
19. GUAUGAGUUGACUGUGAGACUGGCGUGGAAGGAGCGCACGGAGGUGCAGGUAGGUCGCCACAUGAGGAUCACCCAUGUCAGGCCG [Ceedtila]  53 nM
20. UAUCGUCAGACGGCCGCCACUAGAACAUGAGGAUCACCCAUGUACGGCCGCCCGGUGUGAUCCACUAGGACCGGGUCUGACGAAU [(Trp1)-(Ms2)-(T)'-(M)'-(Trp2)_Design23]  53.8 nM
21. AUAACUGUCAAGGAAGGUGAUCCAGCAGAUACCAGCUAGGAAACUAGCCCUUGGCAGCUGCAACAUGAGGAUCACCCAUGUAAUA [(T)'-(M)'-(T1)-(T2)-(M1)-(M2)_Design9]  59.3 nM
22. AUCGUACCUGAUGAUACCAGCAUGUGCUCGUAACAUGAGGAUCACCCAUGUGAUCAGUGAUGCCCUUGGCAGCAUGAUCGGUACA [Same State - Theophylline B (Freestyle 16)]  61.2 nM
23. UGUAUGGACUGAAGGAGCGGGUUGAUAACUUGAGGAUCACCCAGGUAAAAGGCGAAAGCCACCCAGGUAGGUCGCAGUCCAUACU  66.2 nM
24. GGGUACAUCGCGGCCGCCACUCAUGUAAAUGCAUGAGGAACACCCAUGCCGAUGGAGACAUCGGAGAGGACCGGGUGAUGUACCG  93.7 nM
25. CCUAUAUAGUCGGCCGCCACUGACUACAUGAGGAUCACCCAUGUAACACGAACAUGGUCCUGGAUCAGGACCGGGACUAUAUAGG [Tryp B Ex t5]  122 nM
26. AAUAUAAAAUAAAGAAAAUUUAUAUCUGAUACCAGACUCUCAUGGGUCCCUUGGCAGCAGUAACAUGAGGAUCACCCAUGUAUUA [JR_Nu_SSTheophyA_Sub026]  123 nM
27. GAUAGUUGAUGGGAUACCAGCCUACACAUGAGGAUCACCCAUGUGAUUCGUGUACGACUGGGCCCUUGGCAGCCCAUAUUGUGUA [#12 Same State - Theophylline B]  128 nM
28. GGGCAAGAGGGAAGGAGCGUCAGCUGAGUCACAUGAGGAUCACCCAUGUCGCACAUAGUGUGACAGGUAGGUCGCCCUCUGCCCU [Zaistiqu]  133 nM
29. ACACAUGACGCGGCCGCCACUGCAACAUGAGGAUCACCCAUGUCACCCAUGUAUGACAUGAGGAUCAGGACCGGGCGUGUGUGGA [Same State Tryptophan B 3]  195 nM
30. AUUGACAUGAGGAUCACCCAUGUAUCCGAAGGAGCGGCAGAUGUGCCAGGUAGGUCGCGGGUGAAAGAGACAUCGUAGGGUGUCG [Same State - Arginine A / B [only NuPack]]  229 nM
31. AUAACAUGAGGAUCACCCAUGUAAGGUGAUACCAGACGAAGUAAAGUCCCUUGGCAGCACAAGCAUAGUUGCGAAUAUUGAUAGA [JR_SSTheophyA_Sub005]  632 nM

From the supplement of paper PMC9170038
